The results in this text go back to publication PMC10283294, “Chromosome-level genome assembly of Murraya paniculata sheds light on biosynthesis of floral volatiles” (BMC Biology, 2023).

For orientation: Km means the concentration of substrate that gives half-maximal velocity. For orientation: kcat/Km means the second-order rate constant that governs catalysis at low substrate concentration.

What all share (test): GC-MS of phenylacetaldehyde, Lineweaver-Burk
One data set deals with Me4G_0535 (PAAS). Type of data set: biochemical, Murraya paniculata. Particulars: pH 8.5 Tris-HCl, 28 °C, 0.2 mM PLP, 0.1 mM EDTA; read-out: apparent Km.
In the next data set the target is T1, Me2G_2382 (PAAS) (Murraya paniculata, UniProt Z9M7G4IQ32).
T1 sequence (Z9M7G4IQ32 1-505): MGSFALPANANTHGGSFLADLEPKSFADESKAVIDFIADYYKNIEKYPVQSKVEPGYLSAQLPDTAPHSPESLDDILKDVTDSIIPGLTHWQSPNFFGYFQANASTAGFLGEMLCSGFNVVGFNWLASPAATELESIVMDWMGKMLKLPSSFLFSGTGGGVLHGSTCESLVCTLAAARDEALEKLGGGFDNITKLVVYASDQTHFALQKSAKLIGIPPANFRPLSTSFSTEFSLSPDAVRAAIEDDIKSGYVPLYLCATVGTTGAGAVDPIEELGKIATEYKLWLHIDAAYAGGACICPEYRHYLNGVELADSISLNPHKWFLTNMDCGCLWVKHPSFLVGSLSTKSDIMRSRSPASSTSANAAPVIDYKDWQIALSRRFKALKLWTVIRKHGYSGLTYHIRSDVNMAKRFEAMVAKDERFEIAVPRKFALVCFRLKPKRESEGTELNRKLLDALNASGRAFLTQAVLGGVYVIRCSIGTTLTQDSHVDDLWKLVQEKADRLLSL
The class given is biochemical. The following applies: pH 8.5 Tris-HCl, 28 °C, 0.2 mM PLP, 0.1 mM EDTA.

The target in another data set is T2, Me3G_1222 (PAAS) (Murraya paniculata, UniProt Z9VGT8ZCM8).
T2 sequence (Z9VGT8ZCM8 1-380): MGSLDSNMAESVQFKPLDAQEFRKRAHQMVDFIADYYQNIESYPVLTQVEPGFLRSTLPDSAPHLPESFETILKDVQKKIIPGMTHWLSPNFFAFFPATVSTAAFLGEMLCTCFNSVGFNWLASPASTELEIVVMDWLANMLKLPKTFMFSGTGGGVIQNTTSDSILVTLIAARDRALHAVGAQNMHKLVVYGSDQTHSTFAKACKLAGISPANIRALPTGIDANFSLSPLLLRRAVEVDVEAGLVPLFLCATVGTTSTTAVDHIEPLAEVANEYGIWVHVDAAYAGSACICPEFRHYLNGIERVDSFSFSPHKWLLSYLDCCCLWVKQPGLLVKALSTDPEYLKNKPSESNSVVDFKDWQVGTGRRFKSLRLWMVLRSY
Type of data set: biochemical. Particulars: pH 8.5 Tris-HCl, 28 °C, 0.2 mM PLP, 0.1 mM EDTA; read-out: apparent Km.

The test system of the next data set is Me3G_2284 (PAAS). Type of data set: biochemical, Murraya paniculata. The following applies: pH 8.5 Tris-HCl, 28 °C, 0.2 mM PLP, 0.1 mM EDTA; read-out: apparent Km.
For another data set, the system named is Me5G_1302 (PAAS). Type of data set: biochemical, Murraya paniculata. The following applies: pH 8.5 Tris-HCl, 28 °C, 0.2 mM PLP, 0.1 mM EDTA; read-out: apparent Km.
Substrate in data set [1]: N[C@@H](Cc1ccccc1)C(=O)O
The class given is biochemical, Murraya paniculata. The following applies: pH 8.5 Tris-HCl, 28 °C, 0.2 mM PLP, 0.1 mM EDTA.

Take `N[C@@H](Cc1ccccc1)C(=O)O` [L-phenylalanine]: the Michaelis-Menten constant (Km) in the data set with Me4G_0535 (PAAS) was found to be 2 ± 0.54 mM; at Me3G_1222 (PAAS), 9.99 ± 0.46 mM; in the data set with Me3G_2284 (PAAS), 36.6 ± 4.35 mM; in the data set with Me5G_1302 (PAAS), 9.89 ± 1.77 mM. The “apparent Km” value on Me2G_2382 (PAAS) is “kinetic characterisation of purified recombinant PAAS revealed an apparent Km for L-phenylalanine (L-Phe)”.

B1: Me3G_0317 (PAAS) (Murraya paniculata) (protein)
chain: MGSLTSDLELEYNSNSSINLLDSEEFRRQGHMFVDFMAEYYKTIDKYPVRSQVEPGYLKKRLPESAPYSPESVETILEDVQEHIVPGITHWQSPNYFAYFPATSSVPGILGEMLSSGFNVVGMDWISSPAAVELENIVMDWLGQMLNLPKSFLFSGNGGGVIQGTTCEALLCTLTAARDRVLKKIGRENISKLVVYSSDQTHCAFQKAAQIVGIDRKNIRAIKTTKSSSYGLSAESVLSQINLDVEAGLIPLFLCATVGTTAITAVDPLRPLCDVAKQFGMWVHVDAAYAGSACICPEFRHFIDGVECVDSFSFNPHKWLFTSLDCCCLWVKDPSCLLSTLSTNPHYLKNEATDQEPKGQEVGYKDWQITLCRRFRSLKLWLVIRNFGVANLRNFIRSHVGMAKLFERLVHSDKRFEVAFPRNFSLVCFRVTPSAVMDKLRTKYKNGTHDQYRQLSEEERTNEFNRELLESINVSGKVFMTHAIVGGIYVLRFAAGNSMTMESHVREAWTVVQEHLEAF
Consider B1, for which, in data set [1], the Km is 2.7821 ± 0.73 mM and the kcat/Km amounted to 45.2 M⁻¹ s⁻¹.

B2: Me1G_2960 (PAAS) (Murraya paniculata) (protein)
chain: MDAEQLRENAHKMVDFIADYYKSIENFPVLSQVQPGYLHNLIPDSAPNHPESLQNVLDDIQEKILPGVTHWQSPNYFAYFPSNSSVAGFLGEMLSAGLNIVGFSWITSPAATELEMIVLDWLAKLLKLPEDFLSTGQGGGVIQGTASEAVLVVLLAARDEALKRVGKNSLEKLVVYASDQTHSALQKACQIGGIHRQNFRVLKTDSSTNYSLSPDSLAEAISRDLTMGLIPFFLGATVGTTSSTAVDPLLALGNIAKSNGMWFHVDAAYAGSACICPEYRQYIDGVEKADSFNMNAHKWFLTNFDCSALWVKDRNTLIQSLSTNPEFLKNKVSFYFSVHNMFLYYFLAQLSRPKSKSHLFVFVHINCIMNCPFNNVMLTVVELSTLSGENGNILASQANMVVDYKDWQIPLGRRFRSLKLWMVLRLYGLENLQGYIRNHIQLAKHFEGLVAQDSRFEVVTPRIFSLVCFRLLPPHNDEDHGNKLNHNLLDAVNSTGKIFISHTVLSGKYILRFAVGAPLTEGRHVNAAWEVVRDRASALLARLSTE
As for B2, in data set [1], the Michaelis constant (Km) was found to be 1.7851 ± 0.66 mM and the specificity constant (kcat/Km) was 55.9 M⁻¹ s⁻¹.

B3: Me2G_2379 (PAAS) (Murraya paniculata) (protein)
chain: MGSFALPPNGNTHGRSFSADLEPKSFADEAKAVIDFIADYYKNIEKYPVQSKVEPGYLSAQLPDTAPHSPESLDDILKDVTDSIIPGLTHWQSPNFFGYFQANASTAGFLGEMLCSGFNVVGFNWLASPAATELESIVMDWMGKMLKLPSSFLFSGTGGGVLHGSTCESLVCTLAAARDEVLEKLGGGFDNITKLVVYASDQTHFALQKSAKLIGIPPANFRPLSTSFSTEFSLSPDAVRAAIEDDIKSGYVPLYLCATVGTTGAGAVDPIEELGKIATEYKLWLHIDAAYAGGACICPEYRHYLNGVELADSISLNPHKWFLTNMDCGCLWVKHPSFLVGSLSTKSDIMRSRSPASSTSANAAPVIDYKDWQIALSRRFKALKLWTVIRKHGYSGLTYHIRSDVNMAKRFEAMVAKDERFEIAVPRKFALVCFRLKPKRESEGTELNRKLLDALNASGRAFLTQAVLGGVYVIRCSIGTTLTQDSHVDDLWKLVQEKADRLLSLQEPEHARC
As for B3, in data set [1], the Km turned out to be 3.7265 ± 0.83 mM and the specificity constant (kcat/Km) is 100 M⁻¹ s⁻¹.

B4: Me2G_2381 (PAAS) (Murraya paniculata) (protein)
chain: MGSFALPANANTHGGSFSADLEPKSFADEAKAVIDFIADYYKNIEKYPVQSKVEPGYLSAQLPDTAPHSPESLDDILKDVTDSIIPGLTHWQSPNFFGYFQANASTAGFLGEMLCSGFNVVGFNWLASPAATELESIVMDWMGKMLKLPSSFLFSGTGGGVLHGSTCESLVCTLAAARDEVLEKLGGGFDNITKLVVYASDQTHFALQKSAKLIGIPPANFRPLSTSFSTEFSLSPDAVRAAIEDDIKSGYVPLYLCATVGTTGAGAVDPIEELGKIATEYKLWLHIDAAYAGGACICPEYRHYLNGVELADSISLNPHKWFLTNMDCGCLWVKHPSFLVGSLSTKSDIMRSRSPASSTRANAAPVIDYKDWQIALSRRFKALKLWTVIRKHGYSGLTYHIRSDVNMAKRFEAMVAKDERFEIAVPRKFALVCFRLKPKRESEGTELNRKLLDALNASGRAFLTQAVLGGVYVIRCSIGTTLTQDSHVDDLWKLVQEKADRLLSLQEPEHAGC
As for B4, in data set [1], the Km turned out to be 1.7943 ± 0.60 mM and the catalytic efficiency (kcat/Km) worked out at 62.9 M⁻¹ s⁻¹.
